What was measured:
Assay type in all cases: in vivo
[1] = tested on: Arabidopsis thaliana T1 plants; assay: oxyfluorfen tolerance of transgenic Arabidopsis thaliana T1 plants (spray, grade of pesticide damage); details: 7 DAT, number of plants of 24 per genotype, grades
In short: (§1)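 T1 Arabidopsis (PPO constructs; glufosinate-selected) + vector and WT controls, n=24/genotype, d18 post-sowing. Spray 1×/higher field rate or water: saflufenacil 25/100, sulfentrazone 450/900, flumioxazin 60/240, oxyfluorfen 180/720 g ai/ha. Score 7 DAT, grades 0–3 by injured leaf area.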

[2] = tested on: Arabidopsis thaliana T1 plants; assay: saflufenacil tolerance of transgenic Arabidopsis thaliana T1 plants (spray, grade of pesticide damage); details: 7 DAT, number of plants of 24 per genotype, grades
In short: as §1

[3] = tested on: Arabidopsis thaliana T1 plants; assay: flumioxazin tolerance of transgenic Arabidopsis thaliana T1 plants (spray, grade of pesticide damage); details: 7 DAT, number of plants of 24 per genotype, grades
In short: as §1

[4] = tested on: Arabidopsis thaliana T1 plants; assay: sulfentrazone tolerance of transgenic Arabidopsis thaliana T1 plants (spray, grade of pesticide damage); details: 7 DAT, number of plants of 24 per genotype, grades
In short: as §1

[5] = tested on: transgenic soybean plants; assay: oxyfluorfen tolerance of transgenic soybean plants (spray, grade of pesticide damage); details: for The grade of pesticide damage/plant: grade 0 / The grade of pesticide damage/plant: grade 1 / The grade of pesticide damage/plant: grade 2 / The grade of pesticide damage/plant: grade 3: 7 DAT, number of plants of 16 per genotype, grades; for tolerance to oxyfluorfen: soybean
[6] = tested on: transgenic soybean plants; assay: saflufenacil tolerance of transgenic soybean plants (spray, grade of pesticide damage); design: key to damage levels rated at grade: grade 0 means that the growth status of plants is essentially consistent with those sprayed with the blank solvent (water); grade 1 means that the average of the damage levels of plants is less than 10%; grade 2 means that the average of the damage levels of plants is greater than 100%; grade 3 means that the average of the damage levels of plants is 100%; details: for The grade of pesticide damage/plant: grade 0 / The grade of pesticide damage/plant: grade 1 / The grade of pesticide damage/plant: grade 2 / The grade of pesticide damage/plant: grade 3: 7 DAT, number of plants of 16 per genotype, grades
[7] = tested on: transgenic soybean plants; assay: flumioxazin tolerance of transgenic soybean plants (spray, grade of pesticide damage); details: for The grade of pesticide damage/plant: grade 0 / The grade of pesticide damage/plant: grade 1 / The grade of pesticide damage/plant: grade 2 / The grade of pesticide damage/plant: grade 3: 7 DAT, number of plants of 16 per genotype, grades

B1: PPO6A: nucleotide sequence encoding microbial protoporphyrinogen oxidase PPO6 (SEQ ID NO:6), Arabidopsis thaliana/soybean common codon usage bias (nucleic acid)
DNA: ATGTCTTCTCCTAATGGGAAGTATTTGATGCTTTACAGTACCACCGACGGTCACACAAAAACCATTATGGATACAATGGCTAAACATATAATGGAAGAAGCAAAAGTACAATGTGATGTTGTGGACATGAGAGATGGAGACAAATACGAGTTAGCTGCTTATGAGAAGGTGATGCTAGGAGCTTCTATTAGATATGGATTCTTCAGCCGCACTCTTCATACATATACCACTCATCATGTTGATGAACTTAACTCAATGCCTTCCGCTTTCTTTGGAGTCAATCTCACTGCTCGTAAAACTTCAAAGAACACTGCAATGACTAATGCATACACAAGAAAGTTTCTGGATCAATCCATGTGGGTTCCTCAATTATCTGGCGTTTTTGCTGGTGCTTTGTGGTATCCTAGGTACAATTTCTTTGACAGGGTTATGATTCAGTTCATCATGAAGGTAACTGGTGGTGAAACAAACACAACGAAAGAGATAGTTTACACTGATTGGGATGCTGTTCACAAATTTGCAACAGATTTTGTGCAGCTACCAGCCACGGCGATACCCCGGAGCAAGCCGGCGACGTCGGTCCCACCAGCTAGTGTGGCCAACTATGATAATGGGGCACGAGTAGCGCTTGTGGTTGTGGGAATCTCAGCAGCCATCATCTTTGGCCGTCGATTGATTCTCGCAAAGAGATTCTGA
modifications: The nucleotide sequence of PPO6A
The grade of pesticide damage/plant: grade 0 ([1]; oxyfluorfen 180 g ai/ha (1×)): 24 plant | The grade of pesticide damage/plant: grade 1 ([1]; oxyfluorfen 180 g ai/ha (1×)): 0 plant | The grade of pesticide damage/plant: grade 2 ([1]; oxyfluorfen 180 g ai/ha (1×)): 0 plant | The grade of pesticide damage/plant: grade 3 ([1]; oxyfluorfen 180 g ai/ha (1×)): 0 plant | The grade of pesticide damage/plant: grade 0 ([1]; oxyfluorfen 720 g ai/ha (4×)): 20 plant | The grade of pesticide damage/plant: grade 1 ([1]; oxyfluorfen 720 g ai/ha (4×)): 4 plant | The grade of pesticide damage/plant: grade 2 ([1]; oxyfluorfen 720 g ai/ha (4×)): 0 plant | The grade of pesticide damage/plant: grade 3 ([1]; oxyfluorfen 720 g ai/ha (4×)): 0 plant | The grade of pesticide damage/plant: grade 0 ([2]; saflufenacil 25 g ai/ha (1×)): 24 plant | The grade of pesticide damage/plant: grade 1 ([2]; saflufenacil 25 g ai/ha (1×)): 0 plant | The grade of pesticide damage/plant: grade 2 ([2]; saflufenacil 25 g ai/ha (1×)): 0 plant | The grade of pesticide damage/plant: grade 3 ([2]; saflufenacil 25 g ai/ha (1×)): 0 plant | The grade of pesticide damage/plant: grade 0 ([2]; saflufenacil 100 g ai/ha (4×)): 2 plant | The grade of pesticide damage/plant: grade 1 ([2]; saflufenacil 100 g ai/ha (4×)): 22 plant | The grade of pesticide damage/plant: grade 2 ([2]; saflufenacil 100 g ai/ha (4×)): 0 plant | The grade of pesticide damage/plant: grade 3 ([2]; saflufenacil 100 g ai/ha (4×)): 0 plant | The grade of pesticide damage/plant: grade 0 ([3]; flumioxazin 60 g ai/ha (1×)): 24 plant | The grade of pesticide damage/plant: grade 1 ([3]; flumioxazin 60 g ai/ha (1×)): 0 plant | The grade of pesticide damage/plant: grade 2 ([3]; flumioxazin 60 g ai/ha (1×)): 0 plant | The grade of pesticide damage/plant: grade 3 ([3]; flumioxazin 60 g ai/ha (1×)): 0 plant | The grade of pesticide damage/plant: grade 0 ([3]; flumioxazin 240 g ai/ha (4×)): 22 plant | The grade of pesticide damage/plant: grade 1 ([3]; flumioxazin 240 g ai/ha (4×)): 2 plant | The grade of pesticide damage/plant: grade 2 ([3]; flumioxazin 240 g ai/ha (4×)): 0 plant | The grade of pesticide damage/plant: grade 3 ([3]; flumioxazin 240 g ai/ha (4×)): 0 plant | The grade of pesticide: grade 0 ([4]; sulfentrazone 450 g ai/ha (1×)): 24 | The grade of pesticide: grade 1 ([4]; sulfentrazone 450 g ai/ha (1×)): 0 | The grade of pesticide: grade 2 ([4]; sulfentrazone 450 g ai/ha (1×)): 0 | The grade of pesticide: grade 3 ([4]; sulfentrazone 450 g ai/ha (1×)): 0 | The grade of pesticide: grade 0 ([4]; sulfentrazone 900 g ai/ha (2×)): 20 | The grade of pesticide: grade 1 ([4]; sulfentrazone 900 g ai/ha (2×)): 4 | The grade of pesticide: grade 2 ([4]; sulfentrazone 900 g ai/ha (2×)): 0 | The grade of pesticide: grade 3 ([4]; sulfentrazone 900 g ai/ha (2×)): 0 | The grade of pesticide damage/plant: grade 0 ([5]; oxyfluorfen 360 g ai/ha (2×)): 16 plant | The grade of pesticide damage/plant: grade 1 ([5]; oxyfluorfen 360 g ai/ha (2×)): 0 plant | The grade of pesticide damage/plant: grade 2 ([5]; oxyfluorfen 360 g ai/ha (2×)): 0 plant | The grade of pesticide damage/plant: grade 3 ([5]; oxyfluorfen 360 g ai/ha (2×)): 0 plant | The grade of pesticide damage/plant: grade 0 ([5]; oxyfluorfen 720 g ai/ha (4×)): 16 plant | The grade of pesticide damage/plant: grade 1 ([5]; oxyfluorfen 720 g ai/ha (4×)): 0 plant | The grade of pesticide damage/plant: grade 2 ([5]; oxyfluorfen 720 g ai/ha (4×)): 0 plant | The grade of pesticide damage/plant: grade 3 ([5]; oxyfluorfen 720 g ai/ha (4×)): 0 plant | tolerance to oxyfluorfen ([5]; oxyfluorfen at four-fold field concentration (720 g ai/ha)): high-resistant tolerance | tolerance to oxyfluorfen ([5]; oxyfluorfen at two-fold field concentration (360 g ai/ha)): high-resistant tolerance | The grade of pesticide damage/plant: grade 0 ([6]; saflufenacil 50 g ai/ha (2×)): 16 plant | The grade of pesticide damage/plant: grade 1 ([6]; saflufenacil 50 g ai/ha (2×)): 0 plant | The grade of pesticide damage/plant: grade 2 ([6]; saflufenacil 50 g ai/ha (2×)): 0 plant | The grade of pesticide damage/plant: grade 3 ([6]; saflufenacil 50 g ai/ha (2×)): 0 plant | The grade of pesticide damage/plant: grade 0 ([6]; saflufenacil 100 g ai/ha (4×)): 16 plant | The grade of pesticide damage/plant: grade 1 ([6]; saflufenacil 100 g ai/ha (4×)): 0 plant | The grade of pesticide damage/plant: grade 2 ([6]; saflufenacil 100 g ai/ha (4×)): 0 plant | The grade of pesticide damage/plant: grade 3 ([6]; saflufenacil 100 g ai/ha (4×)): 0 plant | tolerance to saflufenacil ([6]; soybean, saflufenacil at four-fold field concentration (100 g ai/ha)): high-resistant tolerance | damage levels rated at grade ([6]; soybean, saflufenacil at two-fold field concentration (50 g ai/ha)): 0 | tolerance to saflufenacil ([6]; soybean, saflufenacil, compared with the control vector and CK): different extents of tolerance | The grade of pesticide damage/plant: grade 0 ([7]; flumioxazin 120 g ai/ha (2×)): 16 plant | The grade of pesticide damage/plant: grade 1 ([7]; flumioxazin 120 g ai/ha (2×)): 0 plant | The grade of pesticide damage/plant: grade 2 ([7]; flumioxazin 120 g ai/ha (2×)): 0 plant | The grade of pesticide damage/plant: grade 3 ([7]; flumioxazin 120 g ai/ha (2×)): 0 plant | The grade of pesticide damage/plant: grade 0 ([7]; flumioxazin 240 g ai/ha (4×)): 16 plant | The grade of pesticide damage/plant: grade 1 ([7]; flumioxazin 240 g ai/ha (4×)): 0 plant | The grade of pesticide damage/plant: grade 2 ([7]; flumioxazin 240 g ai/ha (4×)): 0 plant | The grade of pesticide damage/plant: grade 3 ([7]; flumioxazin 240 g ai/ha (4×)): 0 plant | tolerance to flumioxazin ([7]; soybean, flumioxazin at different concentrations (120 and 240 g ai/ha)): high-resistant tolerance

— patent US20240200091A1, “USE OF PROTOPORPHYRINOGEN OXIDASE” (BEIJING DABEINONG BIOTECHNOLOGY CO., LTD., priority 2021, published 2024)
